According to patent publication US9724426B2, “Agents, uses and methods” (AFFINICON APS, priority 2009, dated 2017):

Tests used:
[1] = molecular target: recombinant CD163 immobilized on a Biacore chip (Homo sapiens, UniProt Q86VB7); assay: Surface plasmon resonance (Biacore) analysis of mAb binding to immobilized CD163; details: 5 μg/ml
Description: SPR analysis of the binding of mAbs to CD163 was carried out on a Biacore 2000 instrument (Biacore, Uppsala, Sweden). The Biacore sensor chips (type CM5) were activated with a 1:1 mixture of 0.2 M N-ethyl-N′-(3-dimethylaminopropyl) carbodiimide and 0.05 M N-hydroxysuccimide in water. Purified recombinant CD163 were immobilized in 10 mM sodium acetate, pH 4.0, and the remaining binding sites were blocked with 1 M ethanolamine, pH 8.5. The SPR signal generated from immobilized recombinant CD163 proteins corresponded to 40-70 fmol of protein/mm^2. Sensorgrams were generated using mAb concentrations ranging from 5-100 nM. The flow cells were regenerated with 1.6 M glycine-HCl, pH 3. The running buffer used for the experiment was either CaHBS 10 mM Hepes, 150 mM NaCl, 3.0 mM CaCl2, 1.0 mM EGTA, and 0.005% Tween 20, pH 7.4. or 10 mM Hepes, 150 mM NaCl, 3.0 mM EDTA, and 0.005% Tween 20, pH 7.4, mAb samples were dissolved in the same buffer as the running buffer used. All binding data were analyzed using the Biamolecular Interaction Analysis evaluation program version 3.1.
SPR analysis of the binding of mAbs to CD163 was carried out on a Biacore 2000 instrument (Biacore, Uppsala, Sweden). […] All binding data were analyzed using the Biamolecular Interaction Analysis evaluation program version 3.1.

[2] = molecular target: T1, CD163 on peripheral blood dendritic cells (Homo sapiens, UniProt Q86VB7); assay: Flow cytometry of CD163 expression on peripheral blood dendritic cells; type: cell-based; details: CD14-ILT3+HLA-DR+ dendritic cells
T1 construct: endogenous in cells; host or cells: human peripheral blood monocytes, monocyte-derived macrophages, blood dendritic cells
T1 sequence (Q86VB7 42-1156): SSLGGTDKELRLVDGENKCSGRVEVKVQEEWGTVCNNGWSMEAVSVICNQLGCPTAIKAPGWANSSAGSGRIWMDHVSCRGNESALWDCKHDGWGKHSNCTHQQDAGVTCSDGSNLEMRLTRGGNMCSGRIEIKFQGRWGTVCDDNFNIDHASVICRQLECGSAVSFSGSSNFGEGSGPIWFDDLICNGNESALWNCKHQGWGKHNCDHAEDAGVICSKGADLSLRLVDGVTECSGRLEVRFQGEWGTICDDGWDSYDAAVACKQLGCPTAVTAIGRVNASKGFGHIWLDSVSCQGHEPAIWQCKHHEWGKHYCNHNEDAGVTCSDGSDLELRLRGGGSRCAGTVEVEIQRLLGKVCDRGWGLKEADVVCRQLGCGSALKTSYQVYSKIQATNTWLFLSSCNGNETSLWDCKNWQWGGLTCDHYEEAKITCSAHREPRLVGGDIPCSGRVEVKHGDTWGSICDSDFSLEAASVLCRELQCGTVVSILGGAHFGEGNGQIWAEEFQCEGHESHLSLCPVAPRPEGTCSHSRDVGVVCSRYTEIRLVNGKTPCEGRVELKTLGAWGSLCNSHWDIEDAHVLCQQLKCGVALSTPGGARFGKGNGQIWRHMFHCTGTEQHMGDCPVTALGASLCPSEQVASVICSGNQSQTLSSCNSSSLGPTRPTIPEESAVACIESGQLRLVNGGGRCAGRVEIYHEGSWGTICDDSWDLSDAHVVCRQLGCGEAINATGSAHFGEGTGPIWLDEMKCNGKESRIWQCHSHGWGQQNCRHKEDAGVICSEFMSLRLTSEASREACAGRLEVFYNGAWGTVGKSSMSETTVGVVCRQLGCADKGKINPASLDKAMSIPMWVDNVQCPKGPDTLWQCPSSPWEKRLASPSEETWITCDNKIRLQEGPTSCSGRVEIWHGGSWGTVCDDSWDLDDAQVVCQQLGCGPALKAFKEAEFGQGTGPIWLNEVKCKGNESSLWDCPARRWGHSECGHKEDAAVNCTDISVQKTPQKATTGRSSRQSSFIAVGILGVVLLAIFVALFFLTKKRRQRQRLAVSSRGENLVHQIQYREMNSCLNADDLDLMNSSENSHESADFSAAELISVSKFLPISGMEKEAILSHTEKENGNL
From the text: Freshly drawn peripheral whole blood samples (approx. 3×10^6 cells) were stained with isotype-matched control antibody (Mouse IgG1 PE, k isotype control, MOPC-21, BD Pharmingen™, San Diego, Calif., USA) or a relevant antibody (anti-CD3 FITC, UCHT1, BD Biosciences, San Diego, Calif., USA; anti-CD11c FITC, KB90, DAKO A/S, Glostrup, Denmark; anti-CD14 FITC, RMO52, IOTests®, Beckman and Coulter, Marseille, France; anti-CD16 FITC, 3G8, BD Biosciences, San Diego, Calif., USA; anti-CD19 FITC, SJ25C1, BD Biosciences, San Diego, Calif., USA; anti-CD20 FITC, CAT 13.6E12, Diatec.com A/S, Oslo, Norway; anti-CD56 FITC, NCAM16.2, BD Biosciences, San Diego, Calif., USA; anti-CD91 FITC, A2MR-a2, BD Biosciences, San Diego, Calif.; anti-HLA-DR FITC, EDU-1, Diatec.com A/S, Oslo, Norway; anti-CD163 PE, MAC2-158, IQ Products, Groningen, The Netherlands; anti-CD163 PE, GHI/61, BD Biosciences, CA, USA; anti-ILT3/CD85k PE-Cy5, ZM3.8, IOTests®, Beckman and Coulter, Marseille, France; anti-HLA-DR PerCP, L234, BD Biosciences, San Diego, Calif.; anti-CD4 APC, EDU-2, Diatec.com A/S, Oslo, Norway; anti-CD14 APC, 18D11, Diatec.com A/S, Oslo, Norway) for 15 minutes at room temperature in the dark. […] For CD163 density quantitation, flow cytometric estimation of antibodies bound/cell (ABCs) was performed using Quantibrite PE beads (Becton Dickinson, San Jose, Calif., USA) as recommended by the manufacturer. […]

recombinant CD163 immobilized on a Biacore chip, sequence (Q86VB7 42-1156): as above

B1: Mac2-158: murine anti-human CD163 mAb binding SRCR domain 1; VH SEQ ID NO:20, VL SEQ ID NO:21; IQ Products (antibody, V domains shown)
VH: DVQLQESGPGLVKPSQSLSLTCTVTGYSITSDYAWNWIRQFPGNKLEWMGYITYSGITNYNPSLKSQISITRDTSKNQFFLQLNSVTTEDTATYYCVSGTYYFDYWGQGTTLTVSS
VL: SVVMTQTPKSLLISIGDRVTITCKASQSVSSDVAWFQQKPGQSPKPLIYYASNRYTGVPDRFTGSGYGTDFTFTISSVQAEDLAVYFCGQDYTSPRTFGGGTKLEIKRA
modifications: Mac2-158 VH sequence; Mac2-158 VL sequence
notes: IQ Products
affinity for human CD163, KN2/NRY compared with Mac2-158 [1]: Virtually similar affinities
fraction of peripheral blood dendritic cells recognized as CD163 expressing [2]: 32.3%
